The test concerns the target T1, Mouse Fc-fused SARS-CoV-2 RBD (SARS-CoV-2, original strain (Wuhan-Hu-1 …, UniProt P0DTC2)).
T1 construct: source: bought: Sino Biological
Put plainly: SPR. The note with it: both partners purified.

B1: anti-SARS-CoV-2 single-chain variable fragment S1-16 (scFv, V domains shown)
VH: QVQLVQSGAEVKKPGASVKVSCKASGYTFTSYYMHWVRQAPGQGLEWMGIINSSGGSTSYAQKFQGRVTMTRDTSTSTVYMELSSLRSEDTAVYYCARPPRNYYDRSGYYQRAEYFQHWGQGTLVTVSS
VL: DIQLTQSPSSLSASVGDRVTITCQASQDISNYLNWYQQRPGKAPKLLIYDASNLETGVPSRFSGSGSGTDFTFTISSLQPEDIATYYCQQYDNPPLTFGGGTKLEIK
notes: also called scFv S1-16; not shown: His6, C-terminal, kept
As usually defined, the Kd is the concentration at which binding is half-saturated. Read a high Kd as lower affinity. As for B1, the dissociation constant Kd was found to be 135 nM.

(Values after paper PMC10189128 (Frontiers in Cellular and Infection Microbiology, 2023).)
